What was measured:
[1] = Pharmacokinetics after IV infusion in Sprague-Dawley rats; assay type: in vivo, rat
Procedure: The objective of this study was to assess the pharmacokinetics and excretion of docetaxel and 4-ARM-PEG20K-BA-docetaxel after intravenous infusion to rats.
Pharmacokinetics of 4-ARM-PEG20K-BA-docetaxel and docetaxel were evaluated in male rats (15 rats/dose level) dosed with 5, 10, and 15 mg/kg (30, 60, 90 mg/m^2) 4-ARM-PEG20K-BA-docetaxel or 5 mg/kg (30 mg/m^2) docetaxel. 4-ARM-PEG20K-BA-docetaxel and docetaxel were administered via a femoral vein catheter as 30-min intravenous infusions at 4 mL/kg. Blood samples (n=15 timepoints with n=5 samples/dose level/timepoint) were obtained by jugular venipuncture between pre-dose and 144 hours post-dose.

[2] = Pharmacokinetics after IV infusion in Beagle dogs; assay type: in vivo, dog
Procedure: The objective of the study was to assess the pharmacokinetics and excretion of docetaxel and 4-ARM-PEG20K-BA-docetaxel after intravenous infusion to dogs.
Pharmacokinetics were evaluated in male dogs (4 dogs/dose level) dosed with 0, 0.75, 2, or 4 mg/kg (0, 15, 40, and 80 mg/m^2/dose) of 4-ARM-PEG20K-BA-docetaxel or 0.75 mg/kg (15 mg/m^2) docetaxel. 4-ARM-PEG20K-BA-docetaxel and docetaxel were administered via a cephalic or saphenous vein disposable catheter as 60-min intravenous infusions at 4 mL/kg/hr. Seventeen blood samples were obtained by jugular venipuncture or Abbacoth IV catheter between 0 and 168 hr post-dose. Plasma concentrations of 4-ARM-PEG20K-BA-docetaxel and docetaxel were determined.

[3] = Population pharmacokinetic modeling of terminal disposition rate constant, dogs; assay type: in vivo; details: dog
From the text: (§1) To further evaluate the sustained plasma docetaxel terminal half-life, a population pharmacokinetic approach was employed.
(§2) While determining the pharmacokinetics of docetaxel after administration of docetaxel or 4-ARM-PEG20K-BA-docetaxel, it was observed that reliable values for the terminal disposition rate constant λz could not be obtained for the majority of animals secondary to fluctuation of plasma docetaxel concentrations between adjacent sampling times and/or the occurrence of incomplete concentration-time profiles due to concentrations being near or at the lower limit of quantification (1 ng/mL). In addition, in Example 14, rats were sampled in groups of 15 using alternating, overlapping sparse sampling schemes across groups to encompass the total duration of sampling. All of these factors contributed to the occurrence of sparse data within a given animal's terminal concentration-time profile.
(§3) To further investigate and compare docetaxel terminal disposition patterns between docetaxel and 4-ARM-PEG20K-BA-docetaxel, population pharmacokinetic methods were applied to data from rats (Example 14) and dogs (Example 15 and in one additional study). This allowed estimation of population λz values and corresponding half-life values for each treatment group in the presence of incomplete data within individual animals. Specifically, data from all animals within a treatment group and all treatment groups were fit with a nonlinear mixed effect pharmacokinetic model using the program Monolix. Plasma docetaxel concentrations following docetaxel or 4-ARM-PEG20K-BA-docetaxel administration, and plasma 4-ARM-PEG20K-BA-docetaxel concentrations following 4-ARM-PEG20K-BA-docetaxel administration were fit with a model specifying zero-order input of the dose over a defined infusion period and biexponential disposition (Monolix PK Model 26). Docetaxel concentration-time data after 4-ARM-PEG20K-BA-docetaxel were fit with a model having first order input, to reflect metabolism of 4-ARM-PEG20K-BA-docetaxel to the active docetaxel metabolite, and biexponential disposition (Monolix PK Model 31). The parameter of interest for this investigation was the population terminal disposition rate constant, λz to supplement the results described above.
Dogs in the additional study received 7 mg/kg doses of 4-ARM-PEG20K-BA-docetaxel on Days 1 and 22 with serial blood sampling after each dose for determination of plasma 4-ARM-PEG20K-BA-docetaxel and docetaxel concentrations.

[4] = Population pharmacokinetic modeling of terminal disposition rate constant, rats; assay type: in vivo; details: rat
From the text: as §1, §2, §3

[5] = male rats, average over 5, 10, 15 mg/kg
[6] = male rats, single IV dose 5 mg/kg
[7] = male rats, single IV dose 10 mg/kg
[8] = male rats, single IV dose 15 mg/kg
[9] = male dogs, average over 0.75, 2, 4 mg/kg
[10] = male dogs, single IV dose 0.75 mg/kg
[11] = male dogs, single IV dose 2 mg/kg
[12] = male dogs, single IV dose 4 mg/kg
[13] = additional study, conjugate 7 mg/kg on Days 1 and 22
[14] = docetaxel 0.75 mg/kg or conjugate 0.72, 2, 4 mg/kg
[15] = docetaxel 5 mg/kg or conjugate 5, 10, 15 mg/kg

For “4-ARM-PEG20K-Butanoate-Linked Docetaxel Conjugate [4-ARM-PEG20K-BA-DOC]”, the “CL, analyte conjugate, average (±SD)” value [1, 5] was 0.33 mL/min/kg, the “Vss, analyte conjugate, average (±SD)” value [1, 5] was 0.61 ± 0.17 L/kg and the “AUCinf, analyte conjugate” value [1, 6] was 250374 ng·h/mL. The “AUClast, analyte conjugate” value [1, 6] was 226203 ng·h/mL, the “AUClast, analyte docetaxel” value [1, 6] was 1711 ng·h/mL and the “CL, analyte conjugate” value [1, 6] was 0.33 mL/min/kg. For the same compound, the “Cmax, analyte conjugate” value [1, 6] was 40079 ng/mL, the “Cmax, analyte docetaxel” value [1, 6] was 122 ng/mL and the “T1/2, analyte conjugate” value [1, 6] was 73 h. The “Tmax, analyte conjugate” value [1, 6] was 0.5 h, the “Tmax, analyte docetaxel” value [1, 6] was 0.5 h and the “Vss, analyte conjugate” value [1, 6] was 0.8 L/kg. The “AUCinf, analyte conjugate” value [1, 7] was 437912 ng·h/mL, the “AUClast, analyte conjugate” value [1, 7] was 419132 ng·h/mL and the “AUClast, analyte docetaxel” value [1, 7] was 3003 ng·h/mL. The “CL, analyte conjugate” value [1, 7] was 0.38 mL/min/kg, the “Cmax, analyte conjugate” value [1, 7] was 70795 ng/mL and the “Cmax, analyte docetaxel” value [1, 7] was 176 ng/mL. For the same compound, the “T1/2, analyte conjugate” value [1, 7] was 59 h, the “Tmax, analyte conjugate” value [1, 7] was 0.5 h and the “Tmax, analyte docetaxel” value [1, 7] was 2.0 h. For the same compound, the “Vss, analyte conjugate” value [1, 7] was 0.55 L/kg, the “AUCinf, analyte conjugate” value [1, 8] was 895159 ng·h/mL and the “AUClast, analyte conjugate” value [1, 8] was 847993 ng·h/mL. The “AUClast, analyte docetaxel” value [1, 8] was 3743 ng·h/mL, the “CL, analyte conjugate” value [1, 8] was 0.28 mL/min/kg and the “Cmax, analyte conjugate” value [1, 8] was 138296 ng/mL. For the same compound, the “Cmax, analyte docetaxel” value [1, 8] was 273 ng/mL, the “T1/2, analyte conjugate” value [1, 8] was 63 h and the “Tmax, analyte conjugate” value [1, 8] was 0.5 h. The “Tmax, analyte docetaxel” value [1, 8] was 1.0 h, the “Vss, analyte conjugate” value [1, 8] was 0.47 L/kg and the “plasma docetaxel AUC compared with docetaxel” value ([1]; rats, equivalent doses (5 mg/kg)) was “similar”. The “plasma docetaxel AUC, fold lower than after docetaxel” value ([2]; dogs, equivalent dose levels of 0.75 mg/kg) was roughly 7 fold, the “CL, analyte conjugate, average (±SD)” value [2, 9] was 0.13 mL/min/kg and the “T1/2, analyte conjugate, average (±SD)” value [2, 9] was 32 ± 4 h. The “Vss, analyte conjugate, average (±SD)” value [2, 9] was 0.26 ± 0.04 L/kg, the “T1/2, analyte conjugate, average (±SD)” value ([2]; male dogs, average over 0.75, 2, 4 mg/kg, listed as 4-ARM-PEG20K-BA-docetaxel) was 31 h and the “AUCinf, analyte conjugate” value [2, 10] was 104247 ng·h/mL. For the same compound, the “AUClast, analyte conjugate” value [2, 10] was 93084 ng·h/mL, the “AUClast, analyte docetaxel” value [2, 10] was 64 ng·h/mL and the “CL, analyte conjugate” value [2, 10] was 0.12 mL/min/kg. For the same compound, the “Cmax, analyte conjugate” value [2, 10] was 7084 ng/mL, the “Cmax, analyte docetaxel” value [2, 10] was 2.1 ng/mL and the “T1/2, analyte conjugate” value [2, 10] was 28 h. The “Tmax, analyte conjugate” value [2, 10] was 1.1 h, the “Tmax, analyte docetaxel” value [2, 10] was 0.88 h and the “Vss, analyte conjugate” value [2, 10] was 0.23 L/kg. The “AUCinf, analyte conjugate” value [2, 11] was 245446 ng·h/mL, the “AUClast, analyte conjugate” value [2, 11] was 232378 ng·h/mL and the “AUClast, analyte docetaxel” value [2, 11] was 153 ng·h/mL. For the same compound, the “CL, analyte conjugate” value [2, 11] was 0.14 mL/min/kg, the “Cmax, analyte conjugate” value [2, 11] was 17731 ng/mL and the “Cmax, analyte docetaxel” value [2, 11] was 6.3 ng/mL. The “T1/2, analyte conjugate” value [2, 11] was 35 h, the “Tmax, analyte conjugate” value [2, 11] was 1.4 h and the “Tmax, analyte docetaxel” value [2, 11] was 1.1 h. For the same compound, the “Vss, analyte conjugate” value [2, 11] was 0.26 L/kg, the “AUCinf, analyte conjugate” value [2, 12] was 611470 ng·h/mL and the “AUClast, analyte conjugate” value [2, 12] was 597336 ng·h/mL. For the same compound, the “AUClast, analyte docetaxel” value [2, 12] was 326 ng·h/mL, the “CL, analyte conjugate” value [2, 12] was 0.12 mL/min/kg and the “Cmax, analyte conjugate” value [2, 12] was 33570 ng/mL. The “Cmax, analyte docetaxel” value [2, 12] was 19 ng/mL, the “T1/2, analyte conjugate” value [2, 12] was 32 h and the “Tmax, analyte conjugate” value [2, 12] was 6.8 h. The “Tmax, analyte docetaxel” value [2, 12] was 12 h, the “Vss, analyte conjugate” value [2, 12] was 0.31 L/kg and the “plasma docetaxel half-life, fold longer than after docetaxel” value [3] was “about 8 fold”. For the same compound, the “Mean (SE) λz, plasma conjugate” value [3, 13] was 0.0141 (0.00041) h^−1, the “Mean (SE) λz, plasma docetaxel” value [3, 13] was 0.00627 (0.00086) hr^−1 and the “t½λz, plasma docetaxel” value [3, 13] was 110 h. For the same compound, the “Mean (SE) λz, plasma docetaxel” value [3, 14] was 0.00349 (0.0021) hr^−1, the “t½λz, plasma docetaxel” value [3, 14] was 199 h and the “plasma docetaxel half-life, fold longer than after docetaxel” value [4] was “about 4 fold”. The “Mean (SE) λz, plasma docetaxel” value [4, 15] was 0.00412 (0.001) hr^−1 and the “t½λz, plasma docetaxel” value [4, 15] was 168 h.

For `CC(=O)O[C@@]12CO[C@@H]1C[C@H](O)[C@@]1(C)C(=O)[C@H](O)C3=C(C)[C@@H](OC(=O)[C@H](O)[C@@H](NC(=O)OC(C)(C)C)c4ccccc4)C[C@@](O)([C@@H](OC(=O)c4ccccc4)[C@H]21)C3(C)C` [Docetaxel, reference compound], the AUC(0-t) ([1]; Sprague-Dawley, rat, plasma, male rats, single IV dose 5 mg/kg, read-out: AUClast, analyte docetaxel) was 1420 ng·h/mL, the Cmax ([1]; Sprague-Dawley, rat, plasma, male rats, single IV dose 5 mg/kg, read-out: Cmax, analyte docetaxel) was 682 ng/mL and the Tmax ([1]; Sprague-Dawley, rat, plasma, male rats, single IV dose 5 mg/kg, read-out: Tmax, analyte docetaxel) was 0.5 h. The AUC(0-t) ([2]; Beagle, dog, plasma, male dogs, single IV dose 0.75 mg/kg, read-out: AUClast, analyte docetaxel) was 479 ng·h/mL, the Cmax ([2]; Beagle, dog, plasma, male dogs, single IV dose 0.75 mg/kg, read-out: Cmax, analyte docetaxel) was 223 ng/mL and the Tmax ([2]; Beagle, dog, plasma, male dogs, single IV dose 0.75 mg/kg, read-out: Tmax, analyte docetaxel) was 0.88 h. For the same compound, the “t½λz, plasma docetaxel” value ([3]; in vivo) was 25 h and the “t½λz, plasma docetaxel” value ([4]; in vivo) was 40 h.

— patent US9504755B2, “Multi-arm polymeric alkanoate conjugates” (Nektar Therapeutics, priority 2008, dated 2016)
